Experiments:
cry1_mouse Cry1 = cry1_mouse Cry1 (UniProt P97784)
cbp_mouse Crebbp = cbp_mouse Crebbp (UniProt P45481)
Sequence of cbp_mouse Crebbp (P45481 whole entry): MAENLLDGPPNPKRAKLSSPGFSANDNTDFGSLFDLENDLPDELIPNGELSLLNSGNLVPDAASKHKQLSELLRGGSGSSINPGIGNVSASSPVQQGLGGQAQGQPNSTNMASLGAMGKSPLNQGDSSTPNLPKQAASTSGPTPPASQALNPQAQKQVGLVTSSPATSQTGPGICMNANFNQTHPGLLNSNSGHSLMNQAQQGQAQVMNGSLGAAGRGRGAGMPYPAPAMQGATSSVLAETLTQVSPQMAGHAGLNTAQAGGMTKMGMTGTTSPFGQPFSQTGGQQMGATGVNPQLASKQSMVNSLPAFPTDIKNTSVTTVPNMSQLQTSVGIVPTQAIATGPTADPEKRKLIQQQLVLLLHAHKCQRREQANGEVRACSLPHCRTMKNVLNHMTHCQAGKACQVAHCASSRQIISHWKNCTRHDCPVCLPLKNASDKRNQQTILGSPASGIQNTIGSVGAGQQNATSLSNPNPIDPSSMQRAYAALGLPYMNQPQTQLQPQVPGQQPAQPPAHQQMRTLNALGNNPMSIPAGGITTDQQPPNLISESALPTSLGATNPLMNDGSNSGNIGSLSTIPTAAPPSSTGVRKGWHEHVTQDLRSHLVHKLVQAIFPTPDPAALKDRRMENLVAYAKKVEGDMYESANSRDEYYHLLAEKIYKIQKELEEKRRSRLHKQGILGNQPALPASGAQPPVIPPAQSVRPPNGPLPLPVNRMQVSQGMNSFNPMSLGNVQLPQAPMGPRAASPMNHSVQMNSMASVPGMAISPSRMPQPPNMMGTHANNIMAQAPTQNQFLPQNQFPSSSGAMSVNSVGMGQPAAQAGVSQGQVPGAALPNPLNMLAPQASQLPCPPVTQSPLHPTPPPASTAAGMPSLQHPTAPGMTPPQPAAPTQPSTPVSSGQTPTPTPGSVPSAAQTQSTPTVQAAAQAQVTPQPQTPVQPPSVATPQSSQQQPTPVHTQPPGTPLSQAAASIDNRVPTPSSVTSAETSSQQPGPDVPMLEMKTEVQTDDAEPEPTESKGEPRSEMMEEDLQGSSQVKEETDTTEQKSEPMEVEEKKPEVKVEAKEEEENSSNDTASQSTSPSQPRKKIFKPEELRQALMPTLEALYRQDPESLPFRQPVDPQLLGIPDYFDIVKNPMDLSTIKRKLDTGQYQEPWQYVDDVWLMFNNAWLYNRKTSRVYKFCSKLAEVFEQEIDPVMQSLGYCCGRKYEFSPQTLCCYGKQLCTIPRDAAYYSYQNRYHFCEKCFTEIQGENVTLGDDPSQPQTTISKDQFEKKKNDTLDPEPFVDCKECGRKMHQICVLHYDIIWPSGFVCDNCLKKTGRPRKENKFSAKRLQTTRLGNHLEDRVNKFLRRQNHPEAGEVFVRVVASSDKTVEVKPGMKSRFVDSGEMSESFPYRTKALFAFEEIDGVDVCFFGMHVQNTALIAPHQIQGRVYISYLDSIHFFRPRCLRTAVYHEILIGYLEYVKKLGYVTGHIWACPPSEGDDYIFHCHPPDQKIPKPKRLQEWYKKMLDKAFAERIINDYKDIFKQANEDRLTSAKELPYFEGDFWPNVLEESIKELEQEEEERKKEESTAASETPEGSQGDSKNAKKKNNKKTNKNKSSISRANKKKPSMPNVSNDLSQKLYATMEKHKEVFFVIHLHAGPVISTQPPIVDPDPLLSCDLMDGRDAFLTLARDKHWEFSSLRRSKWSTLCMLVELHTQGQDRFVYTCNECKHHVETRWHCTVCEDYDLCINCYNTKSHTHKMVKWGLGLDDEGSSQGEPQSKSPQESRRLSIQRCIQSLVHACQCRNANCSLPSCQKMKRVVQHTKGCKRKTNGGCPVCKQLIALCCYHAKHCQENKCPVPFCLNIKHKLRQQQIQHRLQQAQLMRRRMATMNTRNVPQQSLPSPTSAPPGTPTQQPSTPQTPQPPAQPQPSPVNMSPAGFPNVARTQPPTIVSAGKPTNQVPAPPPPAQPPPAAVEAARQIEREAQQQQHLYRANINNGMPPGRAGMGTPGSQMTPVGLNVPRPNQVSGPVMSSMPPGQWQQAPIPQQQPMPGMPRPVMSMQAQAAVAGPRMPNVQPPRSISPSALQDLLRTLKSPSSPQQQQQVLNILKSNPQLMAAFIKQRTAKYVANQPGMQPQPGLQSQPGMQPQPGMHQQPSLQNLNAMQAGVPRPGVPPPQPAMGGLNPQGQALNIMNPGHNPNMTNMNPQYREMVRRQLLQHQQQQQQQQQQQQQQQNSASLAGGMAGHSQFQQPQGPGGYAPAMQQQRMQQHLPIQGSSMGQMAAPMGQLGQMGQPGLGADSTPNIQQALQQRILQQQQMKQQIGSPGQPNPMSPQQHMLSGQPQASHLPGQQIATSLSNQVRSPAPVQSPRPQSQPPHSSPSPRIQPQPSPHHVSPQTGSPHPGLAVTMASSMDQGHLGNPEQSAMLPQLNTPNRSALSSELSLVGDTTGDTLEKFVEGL

Sequence of cry1_mouse Cry1 (P97784 whole entry): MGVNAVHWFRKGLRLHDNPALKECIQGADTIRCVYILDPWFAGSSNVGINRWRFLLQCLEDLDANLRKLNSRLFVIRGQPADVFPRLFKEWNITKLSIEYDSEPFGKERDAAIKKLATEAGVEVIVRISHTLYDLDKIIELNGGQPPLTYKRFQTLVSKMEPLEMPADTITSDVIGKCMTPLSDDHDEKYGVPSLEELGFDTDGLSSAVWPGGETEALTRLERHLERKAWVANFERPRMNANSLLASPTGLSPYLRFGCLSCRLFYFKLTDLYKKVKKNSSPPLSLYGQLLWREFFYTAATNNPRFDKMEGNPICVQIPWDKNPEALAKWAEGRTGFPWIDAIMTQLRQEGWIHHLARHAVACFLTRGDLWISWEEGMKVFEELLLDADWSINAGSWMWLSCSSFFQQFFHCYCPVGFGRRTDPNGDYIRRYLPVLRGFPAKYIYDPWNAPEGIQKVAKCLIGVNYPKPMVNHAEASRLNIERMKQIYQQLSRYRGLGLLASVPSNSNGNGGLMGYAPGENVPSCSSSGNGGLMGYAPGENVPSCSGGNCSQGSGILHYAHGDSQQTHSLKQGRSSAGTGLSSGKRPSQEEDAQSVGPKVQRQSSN
Sequence of Basic helix-loop-helix ARNT-like protein 1 (Mus musculus), Q9WTL8-4 L606A;L607A (Q9WTL8 other isoform, or with tags, fused parts or gaps L606A;L607A): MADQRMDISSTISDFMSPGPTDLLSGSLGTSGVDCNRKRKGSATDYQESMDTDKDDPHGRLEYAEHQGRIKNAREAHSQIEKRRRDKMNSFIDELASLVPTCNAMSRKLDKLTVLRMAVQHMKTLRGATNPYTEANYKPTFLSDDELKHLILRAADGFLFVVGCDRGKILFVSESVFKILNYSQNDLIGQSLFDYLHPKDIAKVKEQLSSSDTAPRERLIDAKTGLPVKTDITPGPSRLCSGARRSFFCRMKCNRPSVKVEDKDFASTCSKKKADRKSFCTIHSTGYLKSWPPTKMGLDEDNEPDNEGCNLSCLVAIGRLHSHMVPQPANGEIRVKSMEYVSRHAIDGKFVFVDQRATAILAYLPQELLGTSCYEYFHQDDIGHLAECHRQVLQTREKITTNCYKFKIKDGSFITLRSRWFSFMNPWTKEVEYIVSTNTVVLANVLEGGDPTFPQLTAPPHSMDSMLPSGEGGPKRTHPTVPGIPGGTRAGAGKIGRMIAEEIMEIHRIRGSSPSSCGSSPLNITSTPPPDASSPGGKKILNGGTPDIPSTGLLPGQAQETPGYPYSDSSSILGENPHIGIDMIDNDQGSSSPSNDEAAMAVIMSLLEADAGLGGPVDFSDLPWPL
Sequence of Basic helix-loop-helix ARNT-like protein 1 (Mus musculus), Q9WTL8-4 V602A;I603F (Q9WTL8 other isoform, or with tags, fused parts or gaps V602A;I603F): as the sequence (Q9WTL8 other isoform, or with tags, fused parts or gaps L606A;L607A) above

effect of a mutation on the interaction (cry1_mouse Cry1)	effect of a mutation on the interaction (cbp_mouse Crebbp)	Substance
disrupting interaction strength	disrupting interaction strength	Basic helix-loop-helix ARNT-like protein 1 (Mus musculus), Q9WTL8-4 L606A;L607A
disrupting interaction strength	–	Basic helix-loop-helix ARNT-like protein 1 (Mus musculus), Q9WTL8-4 V602A;I603F

— IntAct's records for PubMed 25961797
